Experimental data reported in patent US20250262210A1 (TRUSTEES OF COLUMBIA UNIVERSITY IN THE CITY OF NEW YORK, published 2025).

Key:
STK11IP = molecular target: T1, STK11IP (human, UniProt Q8N1F8 1-1088); test: IP/MS, LZTR1 wild type-FLAG, U87
T1 sequence (looked up): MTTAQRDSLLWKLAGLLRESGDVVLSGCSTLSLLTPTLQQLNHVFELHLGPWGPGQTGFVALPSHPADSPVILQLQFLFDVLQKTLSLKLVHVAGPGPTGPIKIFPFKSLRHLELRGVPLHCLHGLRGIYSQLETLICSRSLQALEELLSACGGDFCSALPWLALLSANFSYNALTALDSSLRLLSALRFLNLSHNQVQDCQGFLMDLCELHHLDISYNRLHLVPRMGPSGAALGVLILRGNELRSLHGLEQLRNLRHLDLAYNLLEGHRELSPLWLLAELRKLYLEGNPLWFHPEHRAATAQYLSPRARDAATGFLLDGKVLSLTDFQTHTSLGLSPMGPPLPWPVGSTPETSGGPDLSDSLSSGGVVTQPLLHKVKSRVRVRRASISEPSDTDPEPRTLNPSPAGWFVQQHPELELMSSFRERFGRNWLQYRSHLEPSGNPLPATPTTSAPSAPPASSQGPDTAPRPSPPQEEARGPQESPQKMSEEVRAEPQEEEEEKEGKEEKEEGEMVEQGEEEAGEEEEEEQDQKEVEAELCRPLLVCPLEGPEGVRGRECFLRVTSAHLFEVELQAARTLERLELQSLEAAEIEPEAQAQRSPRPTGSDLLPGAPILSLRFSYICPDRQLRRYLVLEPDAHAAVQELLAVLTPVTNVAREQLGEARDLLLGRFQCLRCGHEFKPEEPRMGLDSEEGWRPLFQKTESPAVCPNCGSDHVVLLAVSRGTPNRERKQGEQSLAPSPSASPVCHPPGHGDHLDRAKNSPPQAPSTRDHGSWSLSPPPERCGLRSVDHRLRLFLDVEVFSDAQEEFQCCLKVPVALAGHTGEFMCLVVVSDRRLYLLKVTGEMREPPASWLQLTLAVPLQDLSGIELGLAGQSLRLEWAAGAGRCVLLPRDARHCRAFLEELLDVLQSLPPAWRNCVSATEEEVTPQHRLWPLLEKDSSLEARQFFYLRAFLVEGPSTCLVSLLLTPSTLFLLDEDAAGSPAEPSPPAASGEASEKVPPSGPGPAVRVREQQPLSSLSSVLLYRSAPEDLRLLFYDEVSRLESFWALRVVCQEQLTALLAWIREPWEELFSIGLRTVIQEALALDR
Outline: (§1)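 Extracted peptides in 3% acetonitrile/0.1% formic acid ran on a 50 cm C18 column into an Orbitrap Fusion, with MaxQuant identification and spectral counting.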

USP4 = molecular target: T2, USP4 (human, UniProt Q13107 1-963, limits assumed); test: IP/MS, LZTR1 wild type-FLAG, U87
T2 sequence (looked up): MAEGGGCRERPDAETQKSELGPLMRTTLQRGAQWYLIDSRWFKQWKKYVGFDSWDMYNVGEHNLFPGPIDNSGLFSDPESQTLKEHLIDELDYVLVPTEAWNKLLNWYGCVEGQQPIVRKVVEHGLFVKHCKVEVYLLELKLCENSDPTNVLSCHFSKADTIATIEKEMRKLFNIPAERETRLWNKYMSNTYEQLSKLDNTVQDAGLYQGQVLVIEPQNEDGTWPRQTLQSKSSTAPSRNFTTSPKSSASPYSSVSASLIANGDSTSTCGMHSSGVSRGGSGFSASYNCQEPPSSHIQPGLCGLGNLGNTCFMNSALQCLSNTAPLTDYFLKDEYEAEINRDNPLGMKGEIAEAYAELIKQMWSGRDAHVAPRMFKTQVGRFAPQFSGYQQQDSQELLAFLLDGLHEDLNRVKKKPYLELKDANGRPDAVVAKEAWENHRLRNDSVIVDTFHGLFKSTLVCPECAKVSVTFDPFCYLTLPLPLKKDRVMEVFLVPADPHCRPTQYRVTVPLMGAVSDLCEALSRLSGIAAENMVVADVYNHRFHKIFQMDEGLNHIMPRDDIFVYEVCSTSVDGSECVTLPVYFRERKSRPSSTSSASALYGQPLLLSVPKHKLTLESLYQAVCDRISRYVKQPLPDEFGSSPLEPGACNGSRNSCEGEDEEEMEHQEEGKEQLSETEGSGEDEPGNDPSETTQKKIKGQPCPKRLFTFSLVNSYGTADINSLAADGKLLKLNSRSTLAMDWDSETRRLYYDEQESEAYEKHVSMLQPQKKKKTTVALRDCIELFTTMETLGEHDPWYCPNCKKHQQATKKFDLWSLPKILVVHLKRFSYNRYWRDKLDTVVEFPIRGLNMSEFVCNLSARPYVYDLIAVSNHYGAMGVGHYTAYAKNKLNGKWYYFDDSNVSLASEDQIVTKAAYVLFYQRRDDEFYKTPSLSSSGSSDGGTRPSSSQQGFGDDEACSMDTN
Outline: as §1

B1: LZTR1-FLAG (other, human, UniProt Q8N653 1-840, looked up)
chain: MAGPGSTGGQIGAAALAGGARSKVAPSVDFDHSCSDSVEYLTLNFGPFETVHRWRRLPPCDEFVGARRSKHTVVAYKDAIYVFGGDNGKTMLNDLLRFDVKDCSWCRAFTTGTPPAPRYHHSAVVYGSSMFVFGGYTGDIYSNSNLKNKNDLFEYKFATGQWTEWKIEGRLPVARSAHGATVYSDKLWIFAGYDGNARLNDMWTIGLQDRELTCWEEVAQSGEIPPSCCNFPVAVCRDKMFVFSGQSGAKITNNLFQFEFKDKTWTRIPTEHLLRGSPPPPQRRYGHTMVAFDRHLYVFGGAADNTLPNELHCYDVDFQTWEVVQPSSDSEVGGAEVPERACASEEVPTLTYEERVGFKKSRDVFGLDFGTTSAKQPTQPASELPSGRLFHAAAVISDAMYIFGGTVDNNIRSGEMYRFQFSCYPKCTLHEDYGRLWESRQFCDVEFVLGEKEECVQGHVAIVTARSRWLRRKITQARERLAQKLEQEAAPVPREAPGVAAGGARPPLLHVAIREAEARPFEVLMQFLYTDKIKYPRKGHVEDVLLIMDVYKLALSFQLCRLEQLCRQYIEASVDLQNVLVVCESAARLQLSQLKEHCLNFVVKESHFNQVIMMKEFERLSSPLIVEIVRRKQQPPPRTPLDQPVDIGTSLIQDMKAYLEGAGAEFCDITLLLDGHPRPAHKAILAARSSYFEAMFRSFMPEDGQVNISIGEMVPSRQAFESMLRYIYYGEVNMPPEDSLYLFAAPYYYGFYNNRLQAYCKQNLEMNVTVQNVLQILEAADKTQALDMKRHCLHIIVHQFTKVSKLPTLRSLSQQLLLDIIDSLASHISDKQCAELGADI
notes: Expressed in HEK 293T, HeLa or U87 cells; used as cell lysate; also called LZTR1 wild type-FLAG; LZTR1 WT; not shown: FLAG tag at the C-terminus
STK11IP
  binding result: binds
USP4
  binding result: binds
